The supplement of paper PMC10126150
± gives the standard deviation of the averaged measurements.

System: ATP
Experiment: switch fluorescence ratio, 500 uM ATP over buffer (Cy3 cluster intensity, sum of 5 cycles each) (fold (ratio)); higher = stronger signal-on switching upon ATP binding; sequences stand for … in TCGTCGGCAGCGTCAGATGTGTATAAGAGACAGTTTTTTTTTTTTTTTTTTTTTTTTT…TC
Conditions: aptamer strand: ATP DNA aptamer (quencher-CACCTGGGGGAGTATTGCGGAGGAAGG + anchor), 100 nM annealed; ATP concentration: 500 uM
Summary of the method: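 Imaging in selection buffer was followed by imaging after 15 min with 500 uM ATP at 22 °C, for Cy3-labelled switching-strand clusters annealed to 100 nM quencher-labelled ATP aptamer on a modified Illumina MiSeq flow-cell. Five of these buffer/ATP cycles ran, separated by NaOH stripping and re-annealing. The fluorescence ratio per cluster is summed target-cycle over summed buffer-cycle Cy3 intensity, averaged per switch-domain sequence; clusters outside 100-1000 RFU were removed.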
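Further: ATP exposure 15 min at 22 °C before imaging.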

Sequence	switch fluorescence ratio
ATGTGTGGT	0.959 ± 0.023
ATGTTGGTCG	0.974 ± 0.028
CAGGTAAATT	0.975 ± 0.03
TGGGCATTGG	1.01 ± 0.018
TTATCAATAA	1.42 ± 0.57
AGGTAGATAA	0.99834 ± 0.00052
AAGAATATAT	0.991 ± 0.018
ATAGTACGTG	1.01 ± 0.024
TACAAATTGT	1.03 ± 0.025
GCGTCTTCAT	0.979 ± 0.011
TGTTATTACC	1 ± 0.013
TTGCTAATAT	1.038 ± 0.0093
GGTGGTGGGG	0.968 ± 0.03
ATGTACGGGG	1.04 ± 0.028
AACAATGGGG	1.03 ± 0.077
TGGGCAGAAG	0.9744 ± 0.0053
TGAGCCCGGG	0.97 ± 0.013
AAGTTGGGTG	1 ± 0.025
AAGGATCTAC	1.01 ± 0.027
CATGCCAGAT	0.994 ± 0.028
TTCGGCGGTA	0.995 ± 0.011
GTCAGATAGG	1.004 ± 0.008
TTATGTTAGT	1.01 ± 0.056

Sequence	switch fluorescence ratio
AAAATGGAGG	1.005 ± 0.0049
AAACCACCCA	1.1 ± 0.019
GCGGGCCTGT	0.9967 ± 0.0099
CGACAGGTTC	1.0621 ± 0.00069
CGAAAATGCC	1.02 ± 0.023
CCTTTGTTTT	1.05 ± 0.091
GGTGTTCGGA	1 ± 0.031
GGACGATGGG	0.995 ± 0.045
TCCGGAGTTT	2.55 ± 0.38
TTTTGTAAGT	0.992 ± 0.029
ATTAGATGGT	1.02 ± 0.024
AGGCACCGGT	1.04 ± 0.0041
ATTAGTGATG	0.989 ± 0.016
AAGGGTAATG	0.9875 ± 0.0042
TTCTGGGAAA	0.9997 ± 0.0057
AAAGGGGTG	1.06 ± 0.016
TTATGGATTT	1.01 ± 0.037
TGCTTTAAGG	1.02 ± 0.04
GAGGGGGATA	1.03 ± 0.058
GATATCGTCT	1.03 ± 0.028
TGGGGTTGGC	1.17 ± 0.34
GATAGTGAGC	0.983 ± 0.036
AATAATGTCG	1.02 ± 0.06

Sequence	switch fluorescence ratio
GTTTGTGAAC	0.9821 ± 0.006
GAAGCGAGTG	0.9785 ± 0.0056
AGGGGAGTAA	0.996 ± 0.023
TGGGGATTGA	1 ± 0.03
CGGGGAGTGC	1.01 ± 0.061
AAATAGAAGA	1.03 ± 0.038
ACGTGGCACA	1.053 ± 0.0084
AGGACAGTCG	0.929 ± 0.045
AGGGAGACGG	1 ± 0.033
TGGTGATGCG	0.998 ± 0.064
GGGTTGGCTC	0.994 ± 0.041
TCTTTTGCTT	1.01 ± 0.032
TTTGATTTTT	0.984 ± 0.024
TGAATGGTCG	1.05 ± 0.036
TGCGGGTGCT	1.04 ± 0.042
AATGCCTTTG	1.02 ± 0.035
CAACTACGGC	1.09 ± 0.05
CTGGGGTTAC	1.77 ± 1
CGGTTGTTGG	0.9787 ± 0.0058
GAAGAGTTTG	0.9776 ± 0.0069
CGTATCAGGG	1.01 ± 0.032
TGCCGAGTGC	1.046 ± 0.0083
GGCAGAGGAG	1.01 ± 0.0063

Sequence	switch fluorescence ratio
GTTTGAGTTG	1.01 ± 0.038
ATATCATCTC	1.002 ± 0.0063
AAAACAGTTC	1.04 ± 0.048
GATTTAGTAC	1.01 ± 0.067
CTTATAGGGG	1 ± 0.035
TTAGGGGGCT	1 ± 0.033
GAGCCTGGGT	1.01 ± 0.017
TTATGCAGGA	0.955 ± 0.057
CGGGGATACT	1.38 ± 0.24
TCGGGGCGAA	1.85 ± 1.3
CCCTGGTGGG	1.04 ± 0.11
TTGCTCAGGG	1.03 ± 0.041
TTGTGATTGT	1.01 ± 0.016
CTCGCTGGTA	1.003 ± 0.0081
TGCTTGAA	0.962 ± 0.021
TGATGGGGGG	0.994 ± 0.021
GATTATTTTT	0.994 ± 0.028
TTTGTGTAGG	1.02 ± 0.049
TCAGTAGGGA	2.94 ± 2.8
TCAGTTCGGC	0.976 ± 0.037
CTGGGGTAAG	1.01 ± 0.042
ATGGTCTGTT	1 ± 0.036
GTGGGTCGGG	1.006 ± 0.0049

Sequence	switch fluorescence ratio
TATACCATGG	0.971 ± 0.046
TGTGATAATG	0.9831 ± 0.0017
TAAAAGGACG	1.09 ± 0.024
CGGTACTATA	1.055 ± 0.0086
CAATTTTTAG	1.01 ± 0.023
CACGGACCTA	1.363 ± 0.012
GTGTGCTGCA	1.03 ± 0.092
CAGTAATGCG	0.99757 ± 0.00094
GGGGCCCGGC	0.904 ± 0.013
GGTTTGGAGA	1.024 ± 0.0091
TTCCTATTTT	1 ± 0.029
TCCGGGGGAC	1.52 ± 0.59
ATTTGTTGGA	0.989 ± 0.04
AGCGTATTGG	0.998 ± 0.035
GAACTAACAG	1.03 ± 0.021
GGGCGTGGTG	1.03 ± 0.011
CTCTAAATGT	1.11 ± 0.016
GATGCGTTCG	1.01 ± 0.018
CGGAAGGCCA	0.9836 ± 0.0044
ACTAAGAGTT	1.03 ± 0.056
AAGCGAGG	0.9872 ± 0.0032
TTAATGTGGA	0.993 ± 0.046
GAGGGAGCGT	1.002 ± 0.0083

Sequence	switch fluorescence ratio
AATTTACGGA	1.06 ± 0.037
GTGGGAAGTC	0.965 ± 0.04
CGAGGTACGT	0.9867 ± 0.0046
GTTGTCCGGG	1 ± 0.027
ACTATAGTAT	1 ± 0.057
GGTGGTCGAG	0.989 ± 0.02
GGTATTTAGG	1.02 ± 0.029
CTTCACATCG	1.03 ± 0.041
ATCGTTAAAC	1.01 ± 0.0099
CGTGTTGGTC	1 ± 0.012
GGGGGCTGCG	1.04 ± 0.051
GGGGGGCGAG	0.9864 ± 0.0052
GCTATATGTA	1 ± 0.031
TGTGGTTATT	0.991 ± 0.025
ATGGGGTTGT	0.966 ± 0.019
TCATGCGGGC	1.02 ± 0.038
ATCAAGTCGG	0.969 ± 0.02
TTCGGGTGTT	0.9932 ± 0.0029
CCGGGTGACA	1.25 ± 0.048
TATGCAGTA	1.3 ± 0.038
GGCATAAGTG	1.016 ± 0.0087
CTGGGGAGAG	1.01 ± 0.026
TTGTTAGAGT	0.9809 ± 0.0019

Sequence	switch fluorescence ratio
AGAATTATCT	1 ± 0.024
CGGAGGGAAT	2.91 ± 2.3
GGGGGGCTTT	0.986 ± 0.022
TTTCGGAAAT	1.01 ± 0.016
TTTTTGTCCC	1.04 ± 0.054
ATTTTGTGGT	1.01 ± 0.011
TTTTACGGTA	1.12 ± 0.022
AAATCGAGCG	0.969 ± 0.025
TTCCAGTAGT	1.01 ± 0.03
TTATGCACGG	1.01 ± 0.044
AGGAATATCA	0.998 ± 0.041
CGCTGATGCT	1.0852 ± 0.00031
TTAAAAAAGT	1.01 ± 0.02
CATATTGCTT	0.993 ± 0.028
CGTCTTGGAA	1.01 ± 0.013
AATAAAGCCT	1.15 ± 0.29
CAGAACAAAA	1.03 ± 0.035
AAAGGGATAG	1.01 ± 0.038
CGGTGTGACA	0.993 ± 0.051
